Measured values reported in patent publication US20260042834A1 (HBM ALPHA THERAPEUTICS, published 2026).
Values joined by “and” are separate entries in the source; they are usually repeats but may differ in a detail not shown here. Equal values may be shown once. Read-outs that look alike come from different tables or passages of the source.

Legend:
biotinylated CRH [1] = target: T1, biotinylated CRH (human and mouse, not fully specified; biotinylated, position not stated); test: Octet in-tandem, row = 1st mAb; competitor (2nd mAb) PR302341-34
T1 construct: also called Biotin-CRH; biotin-labeled CRH
T1 peptide: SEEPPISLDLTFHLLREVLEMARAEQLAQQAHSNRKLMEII
Experimental: (§1) SA sensors (Fortebio, Cat #18-5019) were hydrated in running buffer for 10 mins.

biotinylated CRH [2] = target: T1, biotinylated CRH; test: Octet in-tandem, row = 1st mAb; competitor (2nd mAb) PR005660
Experimental: as §1

biotinylated CRH [3] = target: T1, biotinylated CRH; test: Octet in-tandem, row = 1st mAb; competitor (2nd mAb) PR302334
Experimental: as §1

biotinylated CRH [4] = target: T1, biotinylated CRH; test: Octet BLI, biotinylated CRH on SA sensor
biotinylated CRH [5] = target: T1, biotinylated CRH; test: Octet in-tandem, row = 1st mAb; competitor (2nd mAb) PR301777
Experimental: as §1

biotinylated CRH [6] = target: T1, biotinylated CRH; test: Octet in-tandem, row = 1st mAb; competitor (2nd mAb) PR302309-8
Experimental: as §1

biotinylated CRH [7] = target: T1, biotinylated CRH; test: Octet in-tandem, row = 1st mAb; competitor (2nd mAb) PR303394
Experimental: as §1

biotinylated CRH [8] = target: T1, biotinylated CRH; test: Octet in-tandem, row = 1st mAb; competitor (2nd mAb) PR006669
Experimental: as §1

[9] = target: T2, corticotropin-releasing hormone (CRH) peptide (human and mouse, not fully specified); test: cell-based or functional assay
T2 peptide: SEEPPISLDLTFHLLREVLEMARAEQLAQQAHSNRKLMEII

human UCN2 peptide = target: T3, human UCN2 peptide (human, UniProt Q96RP3 72-109, limits assumed, not fully specified; biotin at N- or C-terminus in the ELISA); test: ELISA on streptavidin-captured hUCN2 (NT biotin) and hUCN2 (CT biotin), mAb at 100 nM and 10 nM; axis labelled RLU, scale 0-4
T3 construct: also called hUCN2; hUCN2 (NT Biotin)
T3 peptide (looked up): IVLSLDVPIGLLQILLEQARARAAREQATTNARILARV
Summary of the method: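 Streptavidin-coated plates (2 μg/mL, overnight 4° C.), blocked with 2% BSA/0.05% Tween-20 PBS pH 7.4, then loaded with 1 μg/mL N- or C-terminally biotinylated hUCN peptide, 1 hour at 37° C. Detection by TMB substrate, 15 minutes at room temperature, stopped, OD450 nm read.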

hUCN1 (NT Biotin) = target: T4, hUCN1 (NT Biotin) (human, UniProt P55089 83-122, biotin at the N-terminus); test: ELISA on streptavidin-captured hUCN1 (NT biotin), mAb at 100 nM and 10 nM; axis labelled RLU, scale 0-4
T4 construct: also called human UCN1 (NT biotin)
T4 peptide (looked up): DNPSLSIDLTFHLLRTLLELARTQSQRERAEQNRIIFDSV
Experimental: (§2) Streptavidin (Thermo, Cat: 21125) was diluted in PBS with a concentration of 2 μg/mL. 100 μL of diluted streptavidin was added per well to ELISA microplates, and the plates were incubated overnight at 4° C. Plates were blocked with ELISA blocking solution (containing 2% w/v BSA, 0.05% (v/v) Tween-20, pH 7.4 PBS buffer) at 37° C. for 1 hour, and then incubated with either 1 μg/mL hUCN1 (NT Biotin), hUCN1 (CT Biotin), hUCN2 (NT Biotin), hUCN2 (CT Biotin), hUCN3 (NT Biotin), or hUCN3 (CT Biotin) for 1 hour at 37° C. […] 100 μl of TMB Substrate (Biopanda, Cat: TMB-S-003) was added, and the plates were incubated at room temperature for 15 minutes. 100 μL of ELISA stopping solution (Solarbio, Cat #: C1058) was then added to terminate the reaction, and the OD450 nm was determined by an ELISA plate reader (Molecular Devices, Spectra max 384 plus).

N-Terminal CRH = target: T5, N-Terminal CRH (human and mouse, C-terminal K-Biotin); test: ELISA, biotin peptide on streptavidin plate
T5 construct: also called N-Ter-CRH (CT-Bion)
T5 peptide: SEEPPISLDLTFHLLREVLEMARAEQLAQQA
Summary of the method: (§3)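 Read-out is absorbance at 450 nm after a stopped TMB reaction of 15 minutes at room temperature. Wells carried streptavidin, coated from a 2 μg/ml PBS solution overnight at 4° C.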

CRH (NT Biotin) = target: T6, CRH (NT Biotin) (human and mouse, not fully specified; biotin at the N-terminus); test: ELISA, biotin peptide on streptavidin plate
T6 peptide: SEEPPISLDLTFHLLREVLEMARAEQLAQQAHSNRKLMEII
Summary of the method: as §3

CRH (CT Biotin) = target: T7, CRH (CT Biotin) (human and mouse, C-terminal K-Biotin); test: ELISA, biotin peptide on streptavidin plate
T7 construct: also called Peptide 4 (CRH-Biotin)
T7 peptide: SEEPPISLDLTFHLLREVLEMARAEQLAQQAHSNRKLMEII
Summary of the method: as §3

human UCN3 peptide = target: T8, human UCN3 peptide (human, UniProt Q969E3 120-157, not fully specified; biotin at N- or C-terminus in the ELISA); test: ELISA on streptavidin-captured hUCN3 (NT biotin) and hUCN3 (CT biotin), mAb at 100 nM and 10 nM; axis labelled RLU, scale 0-4
T8 construct: also called hUCN3; hUCN3 (NT Biotin)
T8 peptide (looked up): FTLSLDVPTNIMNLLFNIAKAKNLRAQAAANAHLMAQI
Experimental: as §2

hUCN1 (CT Biotin) = target: T9, hUCN1 (CT Biotin) (human, UniProt P55089 83-122, biotin at the C-terminus); test: ELISA on streptavidin-captured hUCN1 (CT biotin), mAb at 100 nM and 10 nM; axis labelled RLU, scale 0-4
T9 construct: also called human UCN1 (CT biotin)
T9 peptide (looked up): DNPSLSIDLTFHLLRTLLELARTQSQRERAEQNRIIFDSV
Experimental: as §2, with “100 μL of ELISA stopping solution (Solarbio, Cat #: C1058) was then added to terminate the reaction, and the OD450 nm was determined by an ELISA plate reader (Molecular Devices, Spectra max 384 plus).” left out

[10] = target: T10, corticotropin-releasing hormone (CRH) peptide (human and mouse (same sequence), not fully specified); test: cell-based or functional assay
T10 peptide: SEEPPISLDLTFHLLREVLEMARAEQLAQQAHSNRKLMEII

CRH (CT-Biotin) [11] = target: T11, CRH (CT-Biotin) (human and mouse (same sequence), biotin on an added C-terminal K (CRH-K-Biotin)); test: ELISA, biotinylated CRH on streptavidin plate
T11 construct: also called Peptide 4 (CRH-Biotin)
T11 peptide: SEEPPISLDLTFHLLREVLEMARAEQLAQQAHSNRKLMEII
Summary of the method: as §3

CRH (NT-Biotin) [12] = target: T12, CRH (NT-Biotin) (human and mouse (same sequence), not fully specified; biotin at the N-terminus); test: ELISA, biotinylated CRH on streptavidin plate
T12 peptide: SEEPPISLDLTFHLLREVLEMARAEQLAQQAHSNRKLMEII
Summary of the method: as §3

[13] = target: T10, corticotropin-releasing hormone (CRH) …; test: cell-based or functional assay
[14] = target: T10, corticotropin-releasing hormone (CRH) …; test: cell-based or functional assay
CRH (CT-Biotin) [15] = target: T11, CRH (CT-Biotin); test: ELISA, biotinylated CRH on streptavidin plate
Experimental: (§4) Streptavidin (Thermo, Cat: 21125) was diluted in PBS to a concentration of 2 μg/ml. 100 μl of diluted streptavidin was added per well to ELISA microplates, and the plates were incubated overnight at 4° C. […] 100 μL of 3,3′,5,5′-tetramethylbenzidine (TMB) substrate (Biopanda, Cat: TMB-S-003) was added, and the plates were incubated at room temperature for 15 minutes. 100 μL of ELISA stopping solution (Solarbio, Cat #: C1058) was added to terminate the reaction, and the optical density at 450 nm (OD450 nm) was determined by an ELISA plate reader (Molecular Devices, Spectra max 384 plus).

CRH (NT-Biotin) [16] = target: T12, CRH (NT-Biotin); test: ELISA, biotinylated CRH on streptavidin plate
Experimental: as §4

CRH (CT-Biotin) [17] = target: T11, CRH (CT-Biotin); test: ELISA, biotinylated CRH on streptavidin plate
Experimental: as §4

CRH (NT-Biotin) [18] = target: T12, CRH (NT-Biotin); test: ELISA, biotinylated CRH on streptavidin plate
Experimental: as §4

CRH (CT-Biotin) [19] = target: T11, CRH (CT-Biotin); test: ELISA, biotinylated CRH on streptavidin plate
Experimental: as §4

CRH (NT-Biotin) [20] = target: T12, CRH (NT-Biotin); test: ELISA, biotinylated CRH on streptavidin plate
Experimental: as §4

[21] = target: T10, corticotropin-releasing hormone (CRH) …; test: cell-based or functional assay
[22] = target: T10, corticotropin-releasing hormone (CRH) …; test: cell-based or functional assay
CRH (CT-Biotin) [23] = target: T11, CRH (CT-Biotin); test: ELISA, biotinylated CRH on streptavidin plate
Experimental: as §4

CRH (NT-Biotin) [24] = target: T12, CRH (NT-Biotin); test: ELISA, biotinylated CRH on streptavidin plate
Experimental: as §4

[25] = target: T10, corticotropin-releasing hormone (CRH) …; test: cell-based or functional assay
CRH (CT-Biotin) [26] = target: T11, CRH (CT-Biotin); test: ELISA, biotinylated CRH on streptavidin plate
Experimental: as §4

CRH (NT-Biotin) [27] = target: T12, CRH (NT-Biotin); test: ELISA, biotinylated CRH on streptavidin plate
Experimental: as §4

B1: PR302334 (antibody, human IgG1, kappa, V domains shown)
VH: EVKLVESGGGLVKPGGSLKLSCAASGFTFSTYAMSWVRQTPEKRLEWVASIRSGGTTYYPDSVKGRFTISRDNARNILYLQMSSLRSEDTAIYYCTRGIDWGQGTLVTVSA
VL: NIVMTQTPKFLLVSAGDRITITCKASQSVNNDVAWYQQKPGQSPKLLIYYASNRYTGVPDRFTGSGYGTDFTFTISTVQAEDLAVYFCQQDYSSWTFGGGTNLEIKR
notes: Series 9; mouse variable domains with human IgG1 wildtype Fc
Biotinylated CRH [1]
  % Inhibition: 88%
Biotinylated CRH [2]
  % Inhibition: 92%
Biotinylated CRH [3]
  % Inhibition: 95%
Biotinylated CRH [4]
  Kd: < 0.001 nM
  koff: < 1e-07 s⁻¹
  kon: 669000 M⁻¹ s⁻¹
Biotinylated CRH [5]
  % Inhibition: 90%
Biotinylated CRH [6]
  % Inhibition: 91%
Biotinylated CRH [7]
  % Inhibition: 89%
Biotinylated CRH [8]
  % Inhibition: 93%

B2: PR302334-26 (antibody, human IgG1, kappa, V domains shown)
VH: EVQLVESGGGLVQPGGSLRLSCAASGFTFSTYAMSWVRQAPGKGLEWVASIRSGGTTYYPDSVKGRFTISRDNSKNSLYLQMNSLRAEDTAVYYCTRGIDWGQGTTVTVSS
VL: DIVMTQSPDSLAVSLGERATINCKASQSVNNDVAWYQQKPGQPPRLLIYYASNRYTGVPDRFSGSGSGTDFTLTISSLQAEDLAVYFCQQDYSSWTFGGGTKVEIKR
notes: Humanized variant of PR302334
[9]
  CHO-CRE-hCRHR1 0.5 nM CRH IC50: 1.1 nM
Human UCN2 peptide
  binding result: no binding (tested: 100 nM)
hUCN1 (NT Biotin)
  binding result: no binding (tested: 100 nM)
N-Terminal CRH
  EC50: 0.029 nM
CRH (NT Biotin)
  EC50: 0.029 nM
CRH (CT Biotin)
  EC50: 0.028 nM
Biotinylated CRH [4]
  Kd: < 0.001 nM
  koff: < 1e-07 s⁻¹
  kon: 329000 M⁻¹ s⁻¹
Human UCN3 peptide
  binding result: no binding (tested: 100 nM)
hUCN1 (CT Biotin)
  binding result: no binding (tested: 100 nM)

B3: PR004290 (antibody, human IgG1, kappa, V domains shown)
VH: EVQLVESGGVLVQPGGSLRLSCAASGFTFSSYWMTWVRQAPGKGLEWVANIKQDGSEKYYVDSVKGRFTISRDNAKNSLFLQMNSLRAEDTAVYYCARTLIFDYWGQGTLVTVSS
VL: DIVMTQSPLSLPVTPGEPASISCRSSQSLLHSTGYNSLEWYLQKPGQSPQLLIYLGSNRASGVPDRFSGSGSGTDFTLKISRVEAEDVGIYYCMQTLQTPITFGQGTRLEIKR
notes: Series 1; human IgG1 wildtype Fc; also called Hybridoma Clone 28b3
[10]
  hCRHR1 Luciferase Reporter Assay IC50: 1.83 nM
  mCrhr1 Luciferase Reporter Assay IC50: 5.24 nM
CRH (CT-Biotin) [11]
  EC50: 0.07 nM
CRH (NT-Biotin) [12]
  EC50: 0.039 nM
[13]
  hCRHR1 Luciferase Reporter Assay IC50: 3.69 nM and 4.87 nM
  mCrhr1 Luciferase Reporter Assay IC50: 17 nM and 7.78 nM
[14]
  hCRHR1 Luciferase Reporter Assay IC50: 5.41 nM
  mCrhr1 Luciferase Reporter Assay IC50: 18.5 nM
CRH (CT-Biotin) [15]
  EC50: 0.032 nM
CRH (NT-Biotin) [16]
  EC50: 0.029 nM
CRH (CT-Biotin) [17]
  EC50: 0.07 nM
CRH (NT-Biotin) [18]
  EC50: 0.039 nM
CRH (CT-Biotin) [19]
  EC50: 0.07 nM
CRH (NT-Biotin) [20]
  EC50: 0.039 nM
[21]
  hCRHR1 Luciferase Reporter Assay IC50: 1.83 nM
  mCrhr1 Luciferase Reporter Assay IC50: 5.24 nM
[22]
  mCrhr1 Luciferase Reporter Assay IC50: 5.24 nM
CRH (CT-Biotin) [23]
  EC50: 0.07 nM
CRH (NT-Biotin) [24]
  EC50: 0.039 nM
[25]
  hCRHR1 Luciferase Reporter Assay IC50: 3.69 nM
  mCrhr1 Luciferase Reporter Assay IC50: 13 nM
CRH (CT-Biotin) [26]
  EC50: 0.064 nM and 0.032 nM
CRH (NT-Biotin) [27]
  EC50: 0.029 nM
